From publication PMC6140609 (Oncoimmunology, 2018)

B1: OX40L-4-1BBL (ligand, human)
chain: QVSHRYPRIQSIKVQFTEYKKEKGFILTSQKEDEIMKVQNNSVIINCDGFYLISLKGYFSQEVNISLHYQKDEEPLFQLKKVRSVNSLMVASLTYKDKVYLNVTTDNTSLDDFHVNGGELILIHQNPGEFCVLGGGGSGGGGSGGGGSGGGGSREGPELSPDDPAGLLDLRQGMFAQLVAQNVLLIDGPLSWYSDPGLAGVSLTGGLSYKEDTKELVVAKAGVYYVFFQLELRRVVAGEGSGSVSLALHLQPLRSAAGAAALALTVDLPPASSEARNSAFGFQGRLLHLSAGQRLGVHLHTEARARHAWQLTQGATVLGLFRVTPEIPAGLPSPRSE
B2: CD27L-CD40L (ligand, human)
chain: SLGWDVAELQLNHTGPQQDPRLYWQGGPALGRSFLHGPELDKGQLRIHRDGIYMVHIQVTLAICSSTTASRHHPTTLAVGICSPASRSISLLRLSFHQGCTIASQRLTPLARGDTLCTNLTGTLLPSRNTDETFFGVQWVRPGGGGSGGGGSGGGGSGDQNPQIAAHVISEASSKTTSVLQWAEKGYYTMSNNLVTLENGKQLTVKRQGLYYIYAQVTFCSNREASSQAPFIASLCLKSPGRFERILLRAANTHSSAKPCGQQSIHLGGVFELQPGASVFVNVTDPSQVSHGTGFTSFGLLKL
B3: OX40L-CD27L (ligand, human)
chain: QVSHRYPRIQSIKVQFTEYKKEKGFILTSQKEDEIMKVQNNSVIINCDGFYLISLKGYFSQEVNISLHYQKDEEPLFQLKKVRSVNSLMVASLTYKDKVYLNVTTDNTSLDDFHVNGGELILIHQNPGEFCVLGGGGSGGGGSGGGGSSLGWDVAELQLNHTGPQQDPRLYWQGGPALGRSFLHGPELDKGQLRIHRDGIYMVHIQVTLAICSSTTASRHHPTTLAVGICSPASRSISLLRLSFHQGCTIASQRLTPLARGDTLCTNLTGTLLPSRNTDETFFGVQWVRP
B4: CD27L-OX40L (ligand, human)
chain: SLGWDVAELQLNHTGPQQDPRLYWQGGPALGRSFLHGPELDKGQLRIHRDGIYMVHIQVTLAICSSTTASRHHPTTLAVGICSPASRSISLLRLSFHQGCTIASQRLTPLARGDTLCTNLTGTLLPSRNTDETFFGVQWVRPGGGGSGGGGSGGGGSQVSHRYPRIQSIKVQFTEYKKEKGFILTSQKEDEIMKVQNNSVIINCDGFYLISLKGYFSQEVNISLHYQKDEEPLFQLKKVRSVNSLMVASLTYKDKVYLNVTTDNTSLDDFHVNGGELILIHQNPGEFCVL
B5: CD27L-4-1BBL (ligand, human)
chain: SLGWDVAELQLNHTGPQQDPRLYWQGGPALGRSFLHGPELDKGQLRIHRDGIYMVHIQVTLAICSSTTASRHHPTTLAVGICSPASRSISLLRLSFHQGCTIASQRLTPLARGDTLCTNLTGTLLPSRNTDETFFGVQWVRPGGGGSGGGGSGGGGSGGGGSREGPELSPDDPAGLLDLRQGMFAQLVAQNVLLIDGPLSWYSDPGLAGVSLTGGLSYKEDTKELVVAKAGVYYVFFQLELRRVVAGEGSGSVSLALHLQPLRSAAGAAALALTVDLPPASSEARNSAFGFQGRLLHLSAGQRLGVHLHTEARARHAWQLTQGATVLGLFRVTPEIPAGLPSPRSE
B6: OX40L-CD40L (ligand, human)
chain: QVSHRYPRIQSIKVQFTEYKKEKGFILTSQKEDEIMKVQNNSVIINCDGFYLISLKGYFSQEVNISLHYQKDEEPLFQLKKVRSVNSLMVASLTYKDKVYLNVTTDNTSLDDFHVNGGELILIHQNPGEFCVLGGGGSGGGGSGGGGSGDQNPQIAAHVISEASSKTTSVLQWAEKGYYTMSNNLVTLENGKQLTVKRQGLYYIYAQVTFCSNREASSQAPFIASLCLKSPGRFERILLRAANTHSSAKPCGQQSIHLGGVFELQPGASVFVNVTDPSQVSHGTGFTSFGLLKL
B7: CD40L-OX40L (ligand, human)
chain: GDQNPQIAAHVISEASSKTTSVLQWAEKGYYTMSNNLVTLENGKQLTVKRQGLYYIYAQVTFCSNREASSQAPFIASLCLKSPGRFERILLRAANTHSSAKPCGQQSIHLGGVFELQPGASVFVNVTDPSQVSHGTGFTSFGLLKLGGGGSGGGGSGGGGSQVSHRYPRIQSIKVQFTEYKKEKGFILTSQKEDEIMKVQNNSVIINCDGFYLISLKGYFSQEVNISLHYQKDEEPLFQLKKVRSVNSLMVASLTYKDKVYLNVTTDNTSLDDFHVNGGELILIHQNPGEFCVL
B8: CD40L-CD27L (ligand, human)
chain: GDQNPQIAAHVISEASSKTTSVLQWAEKGYYTMSNNLVTLENGKQLTVKRQGLYYIYAQVTFCSNREASSQAPFIASLCLKSPGRFERILLRAANTHSSAKPCGQQSIHLGGVFELQPGASVFVNVTDPSQVSHGTGFTSFGLLKLGGGGSGGGGSGGGGSSLGWDVAELQLNHTGPQQDPRLYWQGGPALGRSFLHGPELDKGQLRIHRDGIYMVHIQVTLAICSSTTASRHHPTTLAVGICSPASRSISLLRLSFHQGCTIASQRLTPLARGDTLCTNLTGTLLPSRNTDETFFGVQWVRP

Target: the molecule itself
Experiment: SEC

Molecule	stoichiometry N
B1	3
B2	3
B3	3
B4	3
B5	3
B6	3
B7	3

target: Human OX40-Fc (human) (UniProt P43489); experiment: ELISA
Sequence (P43489 29-214): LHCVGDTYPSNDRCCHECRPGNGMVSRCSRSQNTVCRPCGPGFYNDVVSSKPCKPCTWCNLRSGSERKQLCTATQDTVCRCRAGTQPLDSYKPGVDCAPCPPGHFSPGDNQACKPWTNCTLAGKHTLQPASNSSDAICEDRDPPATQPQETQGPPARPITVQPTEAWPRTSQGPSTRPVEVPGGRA

EC50 [nM]	Molecule
14.3	scCD27L-scOX40L (from UniProt P32970 52-193; P32970 52-193; P32970 52-193; P23510 51-183; P23510 51-183; P23510 51-183) (ligand)
60.2	scOX40L-scCD27L (from UniProt P23510 51-183; P23510 51-183; P23510 51-183; P32970 52-193; P32970 52-193; P32970 52-193) (ligand)

target: Human CD40-Fc (human, UniProt P25942 21-193); experiment: ELISA
Sequence (P25942 21-193): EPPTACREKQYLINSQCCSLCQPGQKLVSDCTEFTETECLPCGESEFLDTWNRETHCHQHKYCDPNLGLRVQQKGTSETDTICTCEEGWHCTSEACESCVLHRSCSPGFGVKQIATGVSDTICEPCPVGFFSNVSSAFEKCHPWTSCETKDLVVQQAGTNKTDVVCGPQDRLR

EC50 [nM]	Molecule
12.3	B8
